T1: chimpanzee PSMA, full length (Pan troglodytes, UniProt Q04609 1-750 (human entry))
T1 construct: On transfected HEK293F cells; also called chimp PSMA; H2Q3K5_PANTR
T1 chain: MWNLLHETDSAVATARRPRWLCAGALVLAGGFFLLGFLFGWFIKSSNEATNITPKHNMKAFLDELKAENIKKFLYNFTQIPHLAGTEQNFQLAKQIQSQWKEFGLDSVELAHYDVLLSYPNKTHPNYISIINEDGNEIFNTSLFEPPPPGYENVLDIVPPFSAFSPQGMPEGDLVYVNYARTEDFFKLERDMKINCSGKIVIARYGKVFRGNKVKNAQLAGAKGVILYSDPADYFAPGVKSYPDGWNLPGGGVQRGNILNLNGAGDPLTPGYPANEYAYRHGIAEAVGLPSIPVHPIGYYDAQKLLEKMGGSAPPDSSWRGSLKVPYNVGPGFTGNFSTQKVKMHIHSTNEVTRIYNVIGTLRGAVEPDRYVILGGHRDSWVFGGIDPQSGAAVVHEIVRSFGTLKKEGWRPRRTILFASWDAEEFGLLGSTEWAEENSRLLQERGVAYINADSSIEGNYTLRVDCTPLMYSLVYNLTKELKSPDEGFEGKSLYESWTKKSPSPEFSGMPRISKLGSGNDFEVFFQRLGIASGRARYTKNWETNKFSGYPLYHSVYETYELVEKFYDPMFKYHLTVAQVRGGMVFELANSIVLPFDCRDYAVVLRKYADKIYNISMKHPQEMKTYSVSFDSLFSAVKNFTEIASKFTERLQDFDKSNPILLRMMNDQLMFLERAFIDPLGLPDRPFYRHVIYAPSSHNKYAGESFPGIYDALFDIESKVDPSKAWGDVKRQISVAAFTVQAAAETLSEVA

B1: PS3B23 (bispecific antibody, human IgG4 S228P, kappa, lambda, F234A L235A)
heavy 1: not shown
light 1: not shown
heavy 2: EVQLVESGGGLVQPGGSLRLSCAASGFTFNTYAMNWVRQAPGKGLEWVARIRSKYNNYATYYAASVKGRFTISRDDSKNSLYLQMNSLKTEDTAVYYCARHGNFGNSYVSWFAYWGQGTLVTVSSASTKGPSVFPLAPCSRSTSESTAALGCLVKDYFPEPVTVSWNSGALTSGVHTFPAVLQSSGLYSLSSVVTVPSSSLGTKTYTCNVDHKPSNTKVDKRVESKYGPPCPPCPAPEAAGGPSVFLFPPKPKDTLMISRTPEVTCVVVDVSQEDPEVQFNWYVDGVEVHNAKTKPREEQFNSTYRVVSVLTVLHQDWLNGKEYKCKVSNKGLPSSIEKTISKAKGQPREPQVYTLPPSQEEMTKNQVSLTCLVKGFYPSDIAVEWESNGQPENNYKTTPPVLDSDGSFLLYSKLTVDKSRWQEGNVFSCSVMHEALHNHYTQKSLSLSLGK
light 2: QTVVTQEPSLTVSPGGTVTLTCRSSTGAVTTSNYANWVQQKPGQAPRGLIGGTNKRAPGTPARFSGSLLGGKAALTLSGVQPEDEAEYYCALWYSNLWVFGGGTKLTVLGQPKAAPSVTLFPPSSEELQANKATLVCLISDFYPGAVTVAWKADSSPVKAGVETTTPSKQSNNKYAASSYLSLTPEQWKSHRSYSCQVTHEGSTVEKTVAPTECS
notes: IgG4 PAA; PSMA arm chains first, then CD3 arm (F405L, R409K); also called PSMB123 x CD3B219
B2: PS3B30 (bispecific antibody, human IgG4 S228P, kappa, lambda, F234A L235A)
heavy 1: not shown
light 1: not shown
heavy 2: EVQLVESGGGLVQPGGSLRLSCAASGFTFNTYAMNWVRQAPGKGLEWVARIRSKYNNYATYYAASVKGRFTISRDDSKNSLYLQMNSLKTEDTAVYYCARHGNFGNSYVSWFAYWGQGTLVTVSSASTKGPSVFPLAPCSRSTSESTAALGCLVKDYFPEPVTVSWNSGALTSGVHTFPAVLQSSGLYSLSSVVTVPSSSLGTKTYTCNVDHKPSNTKVDKRVESKYGPPCPPCPAPEAAGGPSVFLFPPKPKDTLMISRTPEVTCVVVDVSQEDPEVQFNWYVDGVEVHNAKTKPREEQFNSTYRVVSVLTVLHQDWLNGKEYKCKVSNKGLPSSIEKTISKAKGQPREPQVYTLPPSQEEMTKNQVSLTCLVKGFYPSDIAVEWESNGQPENNYKTTPPVLDSDGSFLLYSKLTVDKSRWQEGNVFSCSVMHEALHNHYTQKSLSLSLGK
light 2: QTVVTQEPSLTVSPGGTVTLTCRSSTGAVTTSNYANWVQQKPGQAPRGLIGGTNKRAPGTPARFSGSLLGGKAALTLSGVQPEDEAEYYCALWYSNLWVFGGGTKLTVLGQPKAAPSVTLFPPSSEELQANKATLVCLISDFYPGAVTVAWKADSSPVKAGVETTTPSKQSNNKYAASSYLSLTPEQWKSHRSYSCQVTHEGSTVEKTVAPTECS
notes: IgG4 PAA; PSMA arm chains first, then CD3 arm (F405L, R409K); also called PSMB130 x CD3B219
B3: PS3B24 (bispecific antibody, human IgG4 S228P, kappa, lambda, F234A L235A)
heavy 1: not shown
light 1: not shown
heavy 2: EVQLVESGGGLVQPGGSLRLSCAASGFTFNTYAMNWVRQAPGKGLEWVARIRSKYNNYATYYAASVKGRFTISRDDSKNSLYLQMNSLKTEDTAVYYCARHGNFGNSYVSWFAYWGQGTLVTVSSASTKGPSVFPLAPCSRSTSESTAALGCLVKDYFPEPVTVSWNSGALTSGVHTFPAVLQSSGLYSLSSVVTVPSSSLGTKTYTCNVDHKPSNTKVDKRVESKYGPPCPPCPAPEAAGGPSVFLFPPKPKDTLMISRTPEVTCVVVDVSQEDPEVQFNWYVDGVEVHNAKTKPREEQFNSTYRVVSVLTVLHQDWLNGKEYKCKVSNKGLPSSIEKTISKAKGQPREPQVYTLPPSQEEMTKNQVSLTCLVKGFYPSDIAVEWESNGQPENNYKTTPPVLDSDGSFLLYSKLTVDKSRWQEGNVFSCSVMHEALHNHYTQKSLSLSLGK
light 2: QTVVTQEPSLTVSPGGTVTLTCRSSTGAVTTSNYANWVQQKPGQAPRGLIGGTNKRAPGTPARFSGSLLGGKAALTLSGVQPEDEAEYYCALWYSNLWVFGGGTKLTVLGQPKAAPSVTLFPPSSEELQANKATLVCLISDFYPGAVTVAWKADSSPVKAGVETTTPSKQSNNKYAASSYLSLTPEQWKSHRSYSCQVTHEGSTVEKTVAPTECS
notes: IgG4 PAA; PSMA arm chains first, then CD3 arm (F405L, R409K); also called PSMB124 x CD3B219
B4: PS3B22 (bispecific antibody, human IgG4 S228P, kappa, lambda, F234A L235A)
heavy 1: not shown
light 1: DIQMTQSPSSLSASVGDRVTITCRASQSIDRWLNWYQQKPGKAPKLLIYAASSLQSGVPSRFSGSGSGTDFTLTISSLQPEDFATYYCQQSPRYPLTFGQGTKVEIKRTVAAPSVFIFPPSDEQLKSGTASVVCLLNNFYPREAKVQWKVDNALQSGNSQESVTEQDSKDSTYSLSSTLTLSKADYEKHKVYACEVTHQGLSSPVTKSFNRGEC
heavy 2: EVQLVESGGGLVQPGGSLRLSCAASGFTFNTYAMNWVRQAPGKGLEWVARIRSKYNNYATYYAASVKGRFTISRDDSKNSLYLQMNSLKTEDTAVYYCARHGNFGNSYVSWFAYWGQGTLVTVSSASTKGPSVFPLAPCSRSTSESTAALGCLVKDYFPEPVTVSWNSGALTSGVHTFPAVLQSSGLYSLSSVVTVPSSSLGTKTYTCNVDHKPSNTKVDKRVESKYGPPCPPCPAPEAAGGPSVFLFPPKPKDTLMISRTPEVTCVVVDVSQEDPEVQFNWYVDGVEVHNAKTKPREEQFNSTYRVVSVLTVLHQDWLNGKEYKCKVSNKGLPSSIEKTISKAKGQPREPQVYTLPPSQEEMTKNQVSLTCLVKGFYPSDIAVEWESNGQPENNYKTTPPVLDSDGSFLLYSKLTVDKSRWQEGNVFSCSVMHEALHNHYTQKSLSLSLGK
light 2: QTVVTQEPSLTVSPGGTVTLTCRSSTGAVTTSNYANWVQQKPGQAPRGLIGGTNKRAPGTPARFSGSLLGGKAALTLSGVQPEDEAEYYCALWYSNLWVFGGGTKLTVLGQPKAAPSVTLFPPSSEELQANKATLVCLISDFYPGAVTVAWKADSSPVKAGVETTTPSKQSNNKYAASSYLSLTPEQWKSHRSYSCQVTHEGSTVEKTVAPTECS
notes: IgG4 PAA; PSMA arm chains first, then CD3 arm (F405L, R409K); also called PSMB122 x CD3B219; PSB22
B5: PS3B19 (bispecific antibody, human IgG4 S228P, kappa, lambda, F234A L235A)
heavy 1: not shown
light 1: not shown
heavy 2: EVQLVESGGGLVQPGGSLRLSCAASGFTFNTYAMNWVRQAPGKGLEWVARIRSKYNNYATYYAASVKGRFTISRDDSKNSLYLQMNSLKTEDTAVYYCARHGNFGNSYVSWFAYWGQGTLVTVSSASTKGPSVFPLAPCSRSTSESTAALGCLVKDYFPEPVTVSWNSGALTSGVHTFPAVLQSSGLYSLSSVVTVPSSSLGTKTYTCNVDHKPSNTKVDKRVESKYGPPCPPCPAPEAAGGPSVFLFPPKPKDTLMISRTPEVTCVVVDVSQEDPEVQFNWYVDGVEVHNAKTKPREEQFNSTYRVVSVLTVLHQDWLNGKEYKCKVSNKGLPSSIEKTISKAKGQPREPQVYTLPPSQEEMTKNQVSLTCLVKGFYPSDIAVEWESNGQPENNYKTTPPVLDSDGSFLLYSKLTVDKSRWQEGNVFSCSVMHEALHNHYTQKSLSLSLGK
light 2: QTVVTQEPSLTVSPGGTVTLTCRSSTGAVTTSNYANWVQQKPGQAPRGLIGGTNKRAPGTPARFSGSLLGGKAALTLSGVQPEDEAEYYCALWYSNLWVFGGGTKLTVLGQPKAAPSVTLFPPSSEELQANKATLVCLISDFYPGAVTVAWKADSSPVKAGVETTTPSKQSNNKYAASSYLSLTPEQWKSHRSYSCQVTHEGSTVEKTVAPTECS
notes: IgG4 PAA; PSMA arm chains first, then CD3 arm (F405L, R409K); also called PSMB119 x CD3B219
B6: PS3B20 (bispecific antibody, human IgG4 S228P, kappa, lambda, F234A L235A)
heavy 1: not shown
light 1: not shown
heavy 2: EVQLVESGGGLVQPGGSLRLSCAASGFTFNTYAMNWVRQAPGKGLEWVARIRSKYNNYATYYAASVKGRFTISRDDSKNSLYLQMNSLKTEDTAVYYCARHGNFGNSYVSWFAYWGQGTLVTVSSASTKGPSVFPLAPCSRSTSESTAALGCLVKDYFPEPVTVSWNSGALTSGVHTFPAVLQSSGLYSLSSVVTVPSSSLGTKTYTCNVDHKPSNTKVDKRVESKYGPPCPPCPAPEAAGGPSVFLFPPKPKDTLMISRTPEVTCVVVDVSQEDPEVQFNWYVDGVEVHNAKTKPREEQFNSTYRVVSVLTVLHQDWLNGKEYKCKVSNKGLPSSIEKTISKAKGQPREPQVYTLPPSQEEMTKNQVSLTCLVKGFYPSDIAVEWESNGQPENNYKTTPPVLDSDGSFLLYSKLTVDKSRWQEGNVFSCSVMHEALHNHYTQKSLSLSLGK
light 2: QTVVTQEPSLTVSPGGTVTLTCRSSTGAVTTSNYANWVQQKPGQAPRGLIGGTNKRAPGTPARFSGSLLGGKAALTLSGVQPEDEAEYYCALWYSNLWVFGGGTKLTVLGQPKAAPSVTLFPPSSEELQANKATLVCLISDFYPGAVTVAWKADSSPVKAGVETTTPSKQSNNKYAASSYLSLTPEQWKSHRSYSCQVTHEGSTVEKTVAPTECS
notes: IgG4 PAA; PSMA arm chains first, then CD3 arm (F405L, R409K); also called PSMB120 x CD3B219

Assays:
[1] = biological target: T1, chimpanzee PSMA, full length; experiment: FACS, whole cell binding, chimp PSMA HEK; calculated EC50
Description: (§1) PSMA×CD3 bispecific antibodies were tested for binding to PSMA positive cell lines LNCAP, human PSMA-HEK, Chimpanzee-PSMA-HEK and Cynomolgous monkey PSMA-HEK. To assess the binding capabilities of the PSMA bispecific antibodies, the cell-binding assay was utilized (described previously). Briefly, PSMA expressing tumor cells are bound by bispecific antibodies at known concentrations and the bound antibody is detected by an anti-human kappa light chain PE conjugated detection reagent (Invitrogen). The Mean Fluorescents Intensity (MFI) is the measure of bound bispecific antibody. The MFI is converted to a relative EC₅₀. EC₅₀ is a commonly used dose-response curve, where the half maximal effective concentration or the EC₅₀ point is defined as the inflection point of the curve. EC₅₀ s were determined by measuring cell bound bispecific and known concentrations. […] The dose response curves were then diluted down to that of background or no bispecific binding. The inflection point of this curve reflects the EC₅₀ point. The calculated EC₅₀ is determined by taking the ug/ml amount of bispecific antibody at the EC₅₀ point and converting it to a molarity value based on the MW of the bispecific antibody. Bispecific antibodies were normalized for protein concentration and then incubated with the same number of cells expressing either human or cyno PSMA. The MFI at each concentration was collected by flow cytometry and plotted as a function of concentration. Data was transformed via log 10 and then plotted. Nonlinear regression of binding curves was done to determine EC₅₀ s. These relative values were used for ranking PSMA binding to target cells.

[2] = biological target: T2, human PSMA (prostate specific membrane antigen), full length (human, UniProt Q04609 1-750); experiment: FACS, whole cell binding, LNCaP; calculated EC50
T2 construct: On LNCaP or C4-2B cells (endogenous) or transduced HEK293F cells; also called FOLH1_HUMAN; hPSMA
Description: as §1

Binder | EC50 [1] [µM] | EC50 [2] [µM]
B1 | 0.00618 | –
B2 | 0.0232 | 0.0085
B3 | 0.00775 | –
B4 | 0.0212 | 0.0183
B5 | 0.0359 | –
B6 | 0.0234 | 0.864

Reference: patent publication US20200024360A1 (Janssen / Centocor, published 2020)
